These results are taken from patent publication US20080038735A1 (DOMANTIS, published 2008).

The target of test [1] is T1, TNFa (UniProt P01375 77-233, biotinylated (sites not given)).
T1 construct: also called biotinylated TNFa; bio-TNFa
The test is described as follows: ELISA: in vitro translated dAb captured on the plate, incubated with a concentration range of biotinylated TNFa, detected with streptavidin-HRP. As for the experimental part: (§1) The ligation mixture was transformed to XL-10 gold cells (Stratagene) and cells were plated. […] The typical amplification cycle for this PCR is performed with platinum pfx DNA polymerase (invitrogen) and consists of: initial denaturation of 3 min at 95 C, followed by 25 cycles of 30 seconds at 95 C, 30 seconds at 60 C, and 2 minutes at 68 C; and a final extension at 68 C for 3 minutes. The PCR product is cleaned on a Qiagen spin column, eluted and the DNA concentration determined by OD 260/280. The cleaned PCR product is used for in vitro transcription/translation (IVT). A typical 50 μl IVT reaction consists of 500 ng of DNA, 2.0 λl methionine (5 mM), 1.5 μl oxidized glutathione (100 mM) (Sigma), 35 μl bacterial extract, e.g. EcoPro (Novagen), and 11 μl H₂O. The IVT reaction can be performed for 1 up to 4 hours at temperatures between 20 C and 37 C. After IVT, the reaction is diluted 1 in 10 in PBS+0.2% tween-20. Fifty μl are added to an ELISA plate, that has been coated with anti-HA (3F10, Roche) (1 μg/ml in PBS), and incubated for 1 hour at room temperature. After washing, a concentration range (0-500 nM) of biotinylated antigen, i.e. TNFa, is added and incubated on the plate for 1 hour. Again, plate is washed and streptavidin conjugated to horse radish peroxidase (Streptavidin-HRP, Amersham) at a dilution of 1:3500 is added and incubated on the plate for 30 minutes.

Test [2] deals with T1, TNFa. The test is described as follows: not stated (told as a known affinity); higher affinity dAb, known affinity.
The target in test [3] is T1, TNFa. The test is described as follows: ELISA: in vitro translated E5 construct captured on the plate, incubated with a concentration range of biotinylated TNFa, streptavidin-HRP; the sheet does not say whether E5 is free or fused to Tus. As for the experimental part:
as §1
In general terms: ELISA stands for enzyme-linked immunosorbent assay.

As a reminder, the EC50 (read off the curve) is the concentration needed to bring the measured effect to its halfway point. A lower EC50 (read off the curve) goes with a more potent agent. Broadly, the Kd is a measure of binding affinity in units of concentration. Read a low Kd as higher affinity.

T1 sequence (P01375 77-233 limits assumed): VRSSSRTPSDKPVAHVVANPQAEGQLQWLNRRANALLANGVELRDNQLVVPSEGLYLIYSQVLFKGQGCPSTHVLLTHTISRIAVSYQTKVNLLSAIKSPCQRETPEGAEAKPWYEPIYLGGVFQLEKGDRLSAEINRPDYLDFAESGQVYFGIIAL

B1: Vk(TAR1-5-19) (other)
VL: MASTDIQMTQSPSSLSASVGDRVTITCRASQSIDSYLHWYQQKPGKAPKLLIYSASELQSGVPSRFSGSGSGTDFTLTISSLQPEDFATYYCQQVVWRPFTFGQGTKVEIKRAA
notes: Vk domain antibody tested as free dAb; also called free dAb; monomeric domain antibody in solution
Turning to B1, the “EC50 (read off the curve)” value in test [1] was about 0.007 µM. The Kd in test [2] is 0.05 µM.

B2: Vk(E5) (other)
VL: MASTDIQMTQSPSSLSASVGDRVTITCRASQSVSSYLNWYQQKPGKAPKLLIYLASRLQSGVPSRFSGSGSGTDFTLTISSLQPEDFATYYCQQNWWLPPTFGQGTKVEIKRAA
notes: also called Anti-beta-galactosidase Vk clone E5; 7t^3T.Vk(E5)
As to B2, the binding result in test [3] is recorded as “no binding (tested: 1000 nM)”.
